{"source": "patent US10822385B2", "about": "“EGF(A) analogues with fatty acid substituents” (Novo Nordisk A/S, priority 2016, dated 2020)", "biological_target": "T1, hPCSK9 (Homo sapiens, UniProt Q8NBP7)", "T1 construct": "purchased Sino Biologicals, China; host or cells: injected into BalBC or NMRI mice", "T1 sequence (Q8NBP7 153-692)": "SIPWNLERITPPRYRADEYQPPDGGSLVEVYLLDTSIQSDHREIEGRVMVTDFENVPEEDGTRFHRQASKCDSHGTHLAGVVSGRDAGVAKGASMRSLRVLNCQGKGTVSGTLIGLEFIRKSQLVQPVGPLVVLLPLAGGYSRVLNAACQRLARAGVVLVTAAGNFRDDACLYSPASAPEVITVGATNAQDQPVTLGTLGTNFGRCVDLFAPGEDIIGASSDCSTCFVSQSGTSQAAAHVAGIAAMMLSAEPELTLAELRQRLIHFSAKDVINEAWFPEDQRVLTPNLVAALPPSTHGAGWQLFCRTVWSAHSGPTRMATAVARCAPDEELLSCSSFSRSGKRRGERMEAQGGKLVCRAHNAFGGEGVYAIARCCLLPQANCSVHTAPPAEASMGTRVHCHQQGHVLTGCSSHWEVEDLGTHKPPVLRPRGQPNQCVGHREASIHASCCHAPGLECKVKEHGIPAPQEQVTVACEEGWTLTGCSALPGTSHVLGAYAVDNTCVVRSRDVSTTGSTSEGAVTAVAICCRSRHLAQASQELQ", "experiment": "hPCSK9 challenge model, hepatic LDL-R expression in mice (Western Blot)", "assay_type": "in vivo, mouse", "settings": "inhibitor 22 nmol/kg, hPCSK9 0.4 mg/kg i.v., healthy control = 100%, hPCSK9 alone = 0%", "description": "The aim of this study was to show the change in the LDL receptor expression level in mouse liver in response to inhibiting the action of intravenously injected hPCSK9 with an anti-PCSK9 peptide.\nHealthy male BalBC or NMRI mice (Charles River, Germany) are injected with an anti-PCSK9 peptide, either s.c. or i.v. 15-120 minutes before injecting hPCSK9 (Sino Biologicals, China) intravenously in the tail vein at a dose of 0.4 mg/kg. Sixty minutes after the injection of hPCSK9, the animals are anaesthetised in isoflurane and euthanised by cervical dislocation. The liver is then quickly excised and snapfrozen in liquid nitrogen. The livers are kept at −80 degrees celsius until analysis.\nEqual protein transfer was confirmed by Ponceau S (Sigma, P7170) staining of the membranes and the membranes were further blocked in blocking buffer (TBS-T, 2% Tween). […] Quantitative analysis of chemiluminescent signals from Western blots was done with MultiGauge software (Fujifilm).\n“Vehicle-vehicle” is the group of healthy controls (baseline level), “vehicle-hPCSK9” is the group injected with hPCSK9 alone.\nIn Table 8, data are presented as percentage change in relation to the window between baseline level in healthy control animals (set to 100%) and the level after down regulation by hPCSK9 alone (set to 0%).", "data": [{"substance": "Alirocumab: anti-PCSK9 antibody, control molecule in the hPCSK9 challenge model", "values": [{"measurement": "Percentage of baseline (hepatic LDL-R expression)", "result": 157, "unit": "%"}]}]}
